# Numbered stars: 1 amine (or outer) side, 2 acyl side, 3 side chain; on linkers, the order of the positions; unused ones are H or OH. Square brackets hold non-standard residues; d marks the D form. Ends that are not written are not given here. * marks the point of attachment. X2 = 4‑amino‑1‑((3-fluoro-4-methylbenzyl)glycyl)piperidine‑4‑carboxylic acid, Cc1ccc(CN(CC(=O)N2CCC(N[*:1])(C(=O)[*:2])CC2)[*:3])cc1F; X7 = 4‑amino‑1‑(N-methylcarbamimidoyl)piperidine‑4‑carboxylic acid, CNC(=N)N1CCC(N[*:1])(C(=O)[*:2])CC1; Apc(4-OMe) = 4-aminopiperidine-4-carboxylic acid residue N1-acylated by a methoxy-bearing benzylglycyl; DOTA = O=C(O)CN1CCN(CC(=O)O)CCN(CC(=O)*)CCN(CC(=O)O)CC1; Ala(9-anthryl) = N[C@@H](Cc1c2ccccc2cc2ccccc12)C(=O)O; Api(1-amidino) = N=C(N)N1CCC(N)(C(=O)O)CC1; HO(CH2CH2O)2CH2CH2CO = O=C(CCOCCOCCO)*; Phe(4-I) = N[C@@H](Cc1ccc(I)cc1)C(=O)O; d2Nal = N[C@H](Cc1ccc2ccccc2c1)C(=O)O; 4Pal = N[C@@H](Cc1ccncc1)C(=O)O; Nle = CCCC[C@H](N)C(=O)O; APM = not defined here; Ahx = NCCCCCC(=O)O; azaGly = NNC(=O)O; βAla = NCCC(=O)O
# Target: human kisspeptin receptor (KISS1R) (human) (UniProt Q969F8)
# Sequence (Q969F8 whole entry): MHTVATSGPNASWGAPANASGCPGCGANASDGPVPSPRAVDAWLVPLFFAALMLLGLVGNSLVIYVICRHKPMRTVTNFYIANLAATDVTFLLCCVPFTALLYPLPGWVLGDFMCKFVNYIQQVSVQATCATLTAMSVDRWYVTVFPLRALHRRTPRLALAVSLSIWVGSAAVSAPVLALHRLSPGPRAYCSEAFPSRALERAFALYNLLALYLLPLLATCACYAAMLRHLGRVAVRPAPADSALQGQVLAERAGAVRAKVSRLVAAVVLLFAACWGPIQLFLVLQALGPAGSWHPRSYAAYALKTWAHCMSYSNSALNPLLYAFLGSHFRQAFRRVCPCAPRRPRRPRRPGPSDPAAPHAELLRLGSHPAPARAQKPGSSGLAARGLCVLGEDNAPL
# Test: radioligand competition, hKISS1R membranes; legend: C is >100 nM
row,Ki,Binder
1,> 100 nM,{DOTA-Ahx}-[dY][d2Nal]NTF[azaGly]L[4‑amino‑1‑((pyridin-4-ylmethyl)glycyl)piperidine‑4‑carboxylic acid][dW]-NH2 [Compound 370]
2,> 100 nM,{DOTA}-[dY][Ala(9-anthryl)]NTF[azaGly][Nle][Api(1-amidino)][4Pal]-NH2 (SMILES CCCC[C@H](NC(=O)NNC(=O)[C@H](Cc1ccccc1)NC(=O)[C@@H](NC(=O)[C@H](CC(N)=O)NC(=O)[C@H](Cc1c2ccccc2cc2ccccc12)NC(=O)[C@@H](Cc1ccc(O)cc1)NC(=O)CN1CCN(CC(=O)O)CCN(CC(=O)O)CCN(CC(=O)O)CC1)[C@@H](C)O)C(=O)NC1(C(=O)N[C@@H](Cc2ccncc2)C(N)=O)CCN(C(=N)N)CC1) [Compound 123]
3,> 100 nM,{DOTA-Ahx}-[dY][d2Nal]NTF[azaGly]L[4‑amino‑1‑(((tetrahydro-2H-thiopyran-4-yl)methyl)glycyl)piperidine‑4‑carboxylic acid][dW]-NH2 [Compound 375]
4,> 100 nM,{DOTA-Ahx}-[dY][d2Nal]NTF[azaGly]L[X7][dW]-NH2 (SMILES CNC(=N)N1CCC(NC(=O)[C@H](CC(C)C)NC(=O)NNC(=O)[C@H](Cc2ccccc2)NC(=O)[C@@H](NC(=O)[C@H](CC(N)=O)NC(=O)[C@@H](Cc2ccc3ccccc3c2)NC(=O)[C@@H](Cc2ccc(O)cc2)NC(=O)CCCCCNC(=O)CN2CCN(CC(=O)O)CCN(CC(=O)O)CCN(CC(=O)O)CC2)[C@@H](C)O)(C(=O)N[C@H](Cc2c[nH]c3ccccc23)C(N)=O)CC1) [Compound 319]

# Target: human kisspeptin receptor (KISS1R) (human), Q969F8
# Sequence (Q969F8 whole entry): as above
# Test: as above
row,Binder,Ki
1,{DOTA-Ahx}-TNRNFL[Api(1-amidino)]F-NH2 (SMILES CC(C)C[C@H](NC(=O)[C@H](Cc1ccccc1)NC(=O)[C@H](CC(N)=O)NC(=O)[C@H](CCCNC(=N)N)NC(=O)[C@H](CC(N)=O)NC(=O)[C@@H](NC(=O)CCCCCNC(=O)CN1CCN(CC(=O)O)CCN(CC(=O)O)CCN(CC(=O)O)CC1)[C@@H](C)O)C(=O)NC1(C(=O)N[C@@H](Cc2ccccc2)C(N)=O)CCN(C(=N)N)CC1) [Compound 199],> 100 nM
2,{DOTA}-F[azaGly]L[X2]W-NH2 (SMILES Cc1ccc(CNCC(=O)N2CCC(NC(=O)[C@H](CC(C)C)NC(=O)NNC(=O)[C@H](Cc3ccccc3)NC(=O)CN3CCN(CC(=O)O)CCN(CC(=O)O)CCN(CC(=O)O)CC3)(C(=O)N[C@@H](Cc3c[nH]c4ccccc34)C(N)=O)CC2)cc1F) [Compound 49],> 100 nM
3,{DOTA}-[βAla][dN][dN][dE][dE][dN]F[azaGly]L[X2]W-NH2 (SMILES Cc1ccc(CNCC(=O)N2CCC(NC(=O)[C@H](CC(C)C)NC(=O)NNC(=O)[C@H](Cc3ccccc3)NC(=O)[C@@H](CC(N)=O)NC(=O)[C@@H](CCC(=O)O)NC(=O)[C@@H](CCC(=O)O)NC(=O)[C@@H](CC(N)=O)NC(=O)[C@@H](CC(N)=O)NC(=O)CCNC(=O)CN3CCN(CC(=O)O)CCN(CC(=O)O)CCN(CC(=O)O)CC3)(C(=O)N[C@@H](Cc3c[nH]c4ccccc34)C(N)=O)CC2)cc1F) [Compound 15],> 100 nM
4,{DOTA-Ahx}-FGL[Api(1-amidino)]W-NH2 (SMILES CC(C)C[C@H](NC(=O)CNC(=O)[C@H](Cc1ccccc1)NC(=O)CCCCCNC(=O)CN1CCN(CC(=O)O)CCN(CC(=O)O)CCN(CC(=O)O)CC1)C(=O)NC1(C(=O)N[C@@H](Cc2c[nH]c3ccccc23)C(N)=O)CCN(C(=N)N)CC1) [Compound 3],> 100 nM
5,{DOTA}-[βAla][dN][dN][dK][dE][dN]F[azaGly]L[X2]W-NH2 (SMILES Cc1ccc(CNCC(=O)N2CCC(NC(=O)[C@H](CC(C)C)NC(=O)NNC(=O)[C@H](Cc3ccccc3)NC(=O)[C@@H](CC(N)=O)NC(=O)[C@@H](CCC(=O)O)NC(=O)[C@@H](CCCCN)NC(=O)[C@@H](CC(N)=O)NC(=O)[C@@H](CC(N)=O)NC(=O)CCNC(=O)CN3CCN(CC(=O)O)CCN(CC(=O)O)CCN(CC(=O)O)CC3)(C(=O)N[C@@H](Cc3c[nH]c4ccccc34)C(N)=O)CC2)cc1F) [Compound 16],> 100 nM
6,{DOTA-Ahx}-F[azaGly]L[X7]W-NH2 (SMILES CNC(=N)N1CCC(NC(=O)[C@H](CC(C)C)NC(=O)NNC(=O)[C@H](Cc2ccccc2)NC(=O)CCCCCNC(=O)CN2CCN(CC(=O)O)CCN(CC(=O)O)CCN(CC(=O)O)CC2)(C(=O)N[C@@H](Cc2c[nH]c3ccccc23)C(N)=O)CC1) [Compound 189],> 100 nM

# Results, then the binder that gave them:
row,Ki,Binder
1,> 100 nM,{HO(CH2CH2O)2CH2CH2CO}-K(DOTA)TF[azaGly]L[X2][4Pal]-NH2 (SMILES Cc1ccc(CNCC(=O)N2CCC(NC(=O)[C@H](CC(C)C)NC(=O)NNC(=O)[C@H](Cc3ccccc3)NC(=O)[C@@H](NC(=O)[C@H](CCCCNC(=O)CN3CCN(CC(=O)O)CCN(CC(=O)O)CCN(CC(=O)O)CC3)NC(=O)CCOCCOCCO)[C@@H](C)O)(C(=O)N[C@@H](Cc3ccncc3)C(N)=O)CC2)cc1F) [Compound 251]
2,> 100 nM,ENTF[azaGly][dL][Apc(4-OMe)]F [Compound 239]
3,> 100 nM,{DOTA-APM}-F[azaGly]L[X2]H-NH2 (reading uncertain) [Compound 248]
4,> 100 nM,{HO(CH2CH2O)2CH2CH2CO}-K(DOTA)ETF[azaGly]L[X2][4Pal]-NH2 (SMILES Cc1ccc(CNCC(=O)N2CCC(NC(=O)[C@H](CC(C)C)NC(=O)NNC(=O)[C@H](Cc3ccccc3)NC(=O)[C@@H](NC(=O)[C@H](CCC(=O)O)NC(=O)[C@H](CCCCNC(=O)CN3CCN(CC(=O)O)CCN(CC(=O)O)CCN(CC(=O)O)CC3)NC(=O)CCOCCOCCO)[C@@H](C)O)(C(=O)N[C@@H](Cc3ccncc3)C(N)=O)CC2)cc1F) [Compound 252]

# Target: human kisspeptin receptor (KISS1R) (human), Q969F8
# Test: radioligand competition, hKISS1R membranes; legend: B is 10-100 nM
row,Ki,Binder
1,10 to 100 nM,{DOTA}-[dN][dN]F[azaGly]L[X2]W-NH2 (SMILES Cc1ccc(CNCC(=O)N2CCC(NC(=O)[C@H](CC(C)C)NC(=O)NNC(=O)[C@H](Cc3ccccc3)NC(=O)[C@@H](CC(N)=O)NC(=O)[C@@H](CC(N)=O)NC(=O)CN3CCN(CC(=O)O)CCN(CC(=O)O)CCN(CC(=O)O)CC3)(C(=O)N[C@@H](Cc3c[nH]c4ccccc34)C(N)=O)CC2)cc1F) [Compound 18]
2,10 to 100 nM,{DOTA}-[βAla][dN][dN][dN][dN][dN]F[azaGly]L[X2]W-NH2 (SMILES Cc1ccc(CNCC(=O)N2CCC(NC(=O)[C@H](CC(C)C)NC(=O)NNC(=O)[C@H](Cc3ccccc3)NC(=O)[C@@H](CC(N)=O)NC(=O)[C@@H](CC(N)=O)NC(=O)[C@@H](CC(N)=O)NC(=O)[C@@H](CC(N)=O)NC(=O)[C@@H](CC(N)=O)NC(=O)CCNC(=O)CN3CCN(CC(=O)O)CCN(CC(=O)O)CCN(CC(=O)O)CC3)(C(=O)N[C@@H](Cc3c[nH]c4ccccc34)C(N)=O)CC2)cc1F) [Compound 14]
3,10 to 100 nM,{DOTA-Ahx}-F[azaGly]L[Api(1-amidino)]W-NH2 (SMILES CC(C)C[C@H](NC(=O)NNC(=O)[C@H](Cc1ccccc1)NC(=O)CCCCCNC(=O)CN1CCN(CC(=O)O)CCN(CC(=O)O)CCN(CC(=O)O)CC1)C(=O)NC1(C(=O)N[C@@H](Cc2c[nH]c3ccccc23)C(N)=O)CCN(C(=N)N)CC1) [Compound 5]
4,10 to 100 nM,{DOTA}-[dY][Phe(4-I)]NT[Phe(4-I)][azaGly]L[Api(1-amidino)][4Pal]-NH2 (SMILES CC(C)C[C@H](NC(=O)NNC(=O)[C@H](Cc1ccc(I)cc1)NC(=O)[C@@H](NC(=O)[C@H](CC(N)=O)NC(=O)[C@H](Cc1ccc(I)cc1)NC(=O)[C@@H](Cc1ccc(O)cc1)NC(=O)CN1CCN(CC(=O)O)CCN(CC(=O)O)CCN(CC(=O)O)CC1)[C@@H](C)O)C(=O)NC1(C(=O)N[C@@H](Cc2ccncc2)C(N)=O)CCN(C(=N)N)CC1) [Compound 121]
5,10 to 100 nM,{DOTA}-[dK][dN]F[azaGly]L[X2]W-NH2 (SMILES Cc1ccc(CNCC(=O)N2CCC(NC(=O)[C@H](CC(C)C)NC(=O)NNC(=O)[C@H](Cc3ccccc3)NC(=O)[C@@H](CC(N)=O)NC(=O)[C@@H](CCCCN)NC(=O)CN3CCN(CC(=O)O)CCN(CC(=O)O)CCN(CC(=O)O)CC3)(C(=O)N[C@@H](Cc3c[nH]c4ccccc34)C(N)=O)CC2)cc1F) [Compound 19]
6,10 to 100 nM,{DOTA}-[dN]F[azaGly]L[X2]W-NH2 (SMILES Cc1ccc(CNCC(=O)N2CCC(NC(=O)[C@H](CC(C)C)NC(=O)NNC(=O)[C@H](Cc3ccccc3)NC(=O)[C@@H](CC(N)=O)NC(=O)CN3CCN(CC(=O)O)CCN(CC(=O)O)CCN(CC(=O)O)CC3)(C(=O)N[C@@H](Cc3c[nH]c4ccccc34)C(N)=O)CC2)cc1F) [Compound 21]

# Source: patent publication US20250312499A1, “KISSPEPTIN RECEPTOR (KISS1R) TARGETED THERAPEUTICS AND USES THEREOF” (priority 2024, published 2025)
